Key:
[1] = target: the molecule itself; test: dimerisation, gel mobility shift on DR12 probe (not shown)
[2] = target: the molecule itself; test: homodimerisation, gel mobility shift on 4DR12 probe; bands assigned with Superdex 200 fractions
From the text: Arrows show time of addition of methyl epoxyfarnesoate or EtOH carrier.
Nuclear extracts were isolated from Sf9 cells as previously described Jones et al. (2001) Insect Biochem. Mol. Biol. 32, 33-49; Jones et al (1998) Biochem. J. 335, 79-84; 79-84; Jones et al. (2000) Biochem. J. 346, 233-240. For the DR12 probe, the double stranded DR12 oligonucleotide (sequence as shown above) was 5′ end-labelled with ³²P by T4 polynucleotide kinase (New England Biolabs Inc.), and then purified from a 20% native polyacrylamide gel. The same double stranded DR12 oligonucleotide was used in 100-fold excess as a self competitor. For the 4DR12Core probe, the 4DR12Core sequence was liberated from the vector as a 148-bp ClaI/HindIII fragment, and was 5′ end-labelled with ³²P and purified. The same, unlabelled fragment was used at 100-fold excess as a self competitor. As a negative control for specificity in gel shifts, the 36 bp BglII/KpnI polylinker region fragment of the pGL3 vector was liberated and recovered from low melting point agarose gels and used as a 100 nonself competitor (sequence: […], SEQ ID NO: 17). […]

[3] = target: T1, USP C472A/H475L (Drosophila melanogaster, UniProt P20153 SEQ:1-508, C472A/H475L); test: competition; 100x nonself competitor, specificity control; settings: tags: His-tag, pET32EK (Novagen); chain copies: monomer and homodimer (stated)
T1 sequence: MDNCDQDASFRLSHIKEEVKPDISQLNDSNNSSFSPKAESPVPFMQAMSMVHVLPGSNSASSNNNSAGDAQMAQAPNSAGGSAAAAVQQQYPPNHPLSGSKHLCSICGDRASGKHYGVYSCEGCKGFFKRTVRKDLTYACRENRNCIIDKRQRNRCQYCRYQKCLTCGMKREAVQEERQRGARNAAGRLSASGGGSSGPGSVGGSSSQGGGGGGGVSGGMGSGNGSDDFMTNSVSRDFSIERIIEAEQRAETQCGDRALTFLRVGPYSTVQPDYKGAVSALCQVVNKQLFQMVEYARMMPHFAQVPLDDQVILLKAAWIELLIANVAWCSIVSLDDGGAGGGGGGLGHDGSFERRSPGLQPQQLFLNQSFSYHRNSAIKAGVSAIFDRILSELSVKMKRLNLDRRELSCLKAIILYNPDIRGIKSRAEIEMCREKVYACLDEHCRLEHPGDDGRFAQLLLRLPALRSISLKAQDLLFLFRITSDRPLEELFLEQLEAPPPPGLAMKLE
Protocol: (§1) Control competitions with self and nonself unlabelled excess probes confirmed the specificity of binding. […] (B) The homodimer-enriched fraction of each receptor preparation was then analyzed for binding to […] methyl epoxyfarnesoate, using an intrinsic fluorescence assay method that tracks ligand binding (by suppression in receptor fluorescence) Jones et al., (2000) Insect Biochem. Mol. Biol. 30, 671-679; Jones et al. (2001), Insect Biochem. Mol. Biol. 32, 33-49. […] Arrows show time of addition of methyl epoxyfarnesoate or EtOH carrier.
(§2) Nuclear extracts were isolated from Sf9 cells as previously described Jones et al. (2001) Insect Biochem. Mol. Biol. 32, 33-49; Jones et al (1998) Biochem. J. 335, 79-84; 79-84; Jones et al. (2000) Biochem. J. 346, 233-240. For the DR12 probe, the double stranded DR12 oligonucleotide (sequence as shown above) was 5′ end-labelled with ³²P by T4 polynucleotide kinase (New England Biolabs Inc.), and then purified from a 20% native polyacrylamide gel. The same double stranded DR12 oligonucleotide was used in 100-fold excess as a self competitor. For the 4DR12Core probe, the 4DR12Core sequence was liberated from the vector as a 148-bp ClaI/HindIII fragment, and was 5′ end-labelled with ³²P and purified. The same, unlabelled fragment was used at 100-fold excess as a self competitor. […]

[4] = target: T2, USP (ultraspiracle) wild-type (Drosophila melanogaster, UniProt P20153 SEQ:1-508); test: as above; settings: tags: His-tag, pET32EK (Novagen); chain copies: monomer and homodimer (stated)
T2 sequence: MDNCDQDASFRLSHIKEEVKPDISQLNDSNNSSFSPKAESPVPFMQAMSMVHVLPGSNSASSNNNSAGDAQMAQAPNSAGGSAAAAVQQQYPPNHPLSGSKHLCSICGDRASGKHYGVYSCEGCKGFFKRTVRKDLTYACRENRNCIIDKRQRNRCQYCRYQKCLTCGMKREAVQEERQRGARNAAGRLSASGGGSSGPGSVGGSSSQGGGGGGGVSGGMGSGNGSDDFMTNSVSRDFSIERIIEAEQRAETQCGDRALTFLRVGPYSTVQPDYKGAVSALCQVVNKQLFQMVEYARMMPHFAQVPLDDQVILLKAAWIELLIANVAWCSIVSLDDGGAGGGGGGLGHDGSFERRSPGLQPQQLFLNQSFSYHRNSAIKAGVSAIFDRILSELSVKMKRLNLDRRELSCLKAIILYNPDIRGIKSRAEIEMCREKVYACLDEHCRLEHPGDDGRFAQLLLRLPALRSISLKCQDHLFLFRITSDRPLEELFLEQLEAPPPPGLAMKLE
Protocol: as §1, §2

B1: His-tagged wild-type Drosophila melanogaster USP (bacterially overexpressed) (receptor)
chain: MDNCDQDASFRLSHIKEEVKPDISQLNDSNNSSFSPKAESPVPFMQAMSMVHVLPGSNSASSNNNSAGDAQMAQAPNSAGGSAAAAVQQQYPPNHPLSGSKHLCSICGDRASGKHYGVYSCEGCKGFFKRTVRKDLTYACRENRNCIIDKRQRNRCQYCRYQKCLTCGMKREAVQEERQRGARNAAGRLSASGGGSSGPGSVGGSSSQGGGGGGGVSGGMGSGNGSDDFMTNSVSRDFSIERIIEAEQRAETQCGDRALTFLRVGPYSTVQPDYKGAVSALCQVVNKQLFQMVEYARMMPHFAQVPLDDQVILLKAAWIELLIANVAWCSIVSLDDGGAGGGGGGLGHDGSFERRSPGLQPQQLFLNQSFSYHRNSAIKAGVSAIFDRILSELSVKMKRLNLDRRELSCLKAIILYNPDIRGIKSRAEIEMCREKVYACLDEHCRLEHPGDDGRFAQLLLRLPALRSISLKCQDHLFLFRITSDRPLEELFLEQLEAPPPPGLAMKLE
notes: Full-length dUSP cloned into pET32EK, purified on nickel resin and Superdex 200; also called wild-type dUSP; His-dUSP fusion protein; not shown: His tag / fusion part from the vector pET32EK
Does B1 bind [1]?
Result: binds

B2: His-tagged mutant dUSP Cys472Ala/His475Leu (bacterially overexpressed) (receptor)
chain: MDNCDQDASFRLSHIKEEVKPDISQLNDSNNSSFSPKAESPVPFMQAMSMVHVLPGSNSASSNNNSAGDAQMAQAPNSAGGSAAAAVQQQYPPNHPLSGSKHLCSICGDRASGKHYGVYSCEGCKGFFKRTVRKDLTYACRENRNCIIDKRQRNRCQYCRYQKCLTCGMKREAVQEERQRGARNAAGRLSASGGGSSGPGSVGGSSSQGGGGGGGVSGGMGSGNGSDDFMTNSVSRDFSIERIIEAEQRAETQCGDRALTFLRVGPYSTVQPDYKGAVSALCQVVNKQLFQMVEYARMMPHFAQVPLDDQVILLKAAWIELLIANVAWCSIVSLDDGGAGGGGGGLGHDGSFERRSPGLQPQQLFLNQSFSYHRNSAIKAGVSAIFDRILSELSVKMKRLNLDRRELSCLKAIILYNPDIRGIKSRAEIEMCREKVYACLDEHCRLEHPGDDGRFAQLLLRLPALRSISLKAQDLLFLFRITSDRPLEELFLEQLEAPPPPGLAMKLE
notes: also called C472A/H475L; double mutant dUSP; not shown: His tag / fusion part from the vector pET32EK
Does B2 bind [2]?
Result: binds

B3: P498W/P499W mutant USP (receptor, not shown: small tags and cut ends)
chain: MDNCDQDASFRLSHIKEEVKPDISQLNDSNNSSFSPKAESPVPFMQAMSMVHVLPGSNSASSNNNSAGDAQMAQAPNSAGGSAAAAVQQQYPPNHPLSGSKHLCSICGDRASGKHYGVYSCEGCKGFFKRTVRKDLTYACRENRNCIIDKRQRNRCQYCRYQKCLTCGMKREAVQEERQRGARNAAGRLSASGGGSSGPGSVGGSSSQGGGGGGGVSGGMGSGNGSDDFMTNSVSRDFSIERIIEAEQRAETQCGDRALTFLRVGPYSTVQPDYKGAVSALCQVVNKQLFQMVEYARMMPHFAQVPLDDQVILLKAAWIELLIANVAWCSIVSLDDGGAGGGGGGLGHDGSFERRSPGLQPQQLFLNQSFSYHRNSAIKAGVSAIFDRILSELSVKMKRLNLDRRELSCLKAIILYNPDIRGIKSRAEIEMCREKVYACLDEHCRLEHPGDDGRFAQLLLRLPALRSISLKCQDHLFLFRITSDRPLEELFLEQLEAWWPPGLAMKLE
notes: Two prolines at the end of alpha-helix 12 replaced by tryptophan
Does B3 bind [1]?
Result: binds

B4: pGL3 polylinker (nonself) (dsDNA)
DNA 1: GGTACCGAGCTCTTACGCGTGCTAGCCCGGGCTCGA
DNA 2: TCGAGCCCGGGCTAGCACGCGTAAGAGCTCGGTACC
Does B4 bind [3]?
Result: no binding

Does B4 bind [4]?
Result: no binding
